Results reported in US11618906B2, “Hydroxylation techniques” (HYPHA DISCOVERY LTD., priority 2018, dated 2023).

Tests used:
Type in all cases: biochemical
[1] = Metabolism of tivantinib by P450 aluC09 and mutants; conditions: percent of substrate being converted; 0.125 mg/ml, 27° C., 16-20 hours; [CYP] per enzyme as in Table 8
Outline: (§1)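 Biotransformation: CYP aluC09 mutant + ferredoxin aluF03 + reductase SCF15A, 0.125 mg/ml substrate, KPi 50 mM pH 7.4, MgCl2 5 mM, G6P/NADP/G6PDH recycling; 27° C, 16-20 h shaking; MeCN quench, UPLC-MS conversion.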

[2] = Metabolism of celecoxib by P450 aluC09 and mutants; conditions: percent of substrate being converted; 0.125 mg/ml, 27° C., 16-20 hours; [CYP] per enzyme as in Table 8
Outline: as §1

[3] = Metabolism of ritonavir by P450 aluC09 and mutants; conditions: percent of substrate being converted; 0.125 mg/ml, 27° C., 16-20 hours; [CYP] per enzyme as in Table 8
Outline: as §1

[4] = O-demethylation of indomethacin catalysed by cytochrome P450 aluC09 and mutants; conditions: % by UV peak area at 275 nm; 0.125 mg/ml substrate, 27° C., 16-20 hours
Outline: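 Conversion was quantified by UPLC-UV/MS after acetonitrile extraction of 16-20 h, 27° C. shaken reactions. These contained 0.125 mg/ml substrate, mutant P450 with partner ferredoxin and reductase, 1 mM NADP plus 5 mM G6P and 2 U/ml G6PDH, in pH 7.4 phosphate with 5 mM MgCl2.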

[5] = Metabolism of bosentan by P450 aluC09 and mutants; conditions: percent of substrate being converted; 0.125 mg/ml, 27° C., 16-20 hours; [CYP] per enzyme as in Table 8
Outline: as §1

[6] = Hydroxylation / de-N-ethylation of napropamide catalysed by cytochrome P450 aluC09 and mutants
Outline: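 Conversion of napropamide (0.125 mg/ml) to hydroxylated and de-ethylated metabolites was measured by UPLC-MS after acetonitrile extraction. Reactions ran 16-20 h at 27° C in pH 7.4 potassium phosphate (50 mM) with 5 mM MgCl2, 1 mM NADP, 5 mM G6P and 2 UN/ml G6PDH. Enzymes were lyophilised P450 aluC09 variants, ferredoxin aluF03 and ferredoxin reductase SCF15A.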

[7] = Hydroxylation of flufenamic acid catalysed by cytochrome P450 aluC09 and mutants
Outline: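 Conversion measured by UPLC-MS (UV and MS) after acetonitrile extraction, following 16-20 h shaking at 27° C. Reaction: 0.125 mg/ml substrate, P450 mutant plus ferredoxin aluF03 and reductase SCF15A, 5 mM G6P, 1 mM NADP, 2 U/ml G6PDH, pH 7.4 phosphate with 5 mM MgCl2.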

[8] = Metabolism of valsartan by P450 aluC09 and mutants; conditions: percent of substrate being converted; 0.125 mg/ml, 27° C., 16-20 hours; [CYP] per enzyme as in Table 8
Outline: as §1

[9] = Metabolism of BIRB796 by P450 aluC09 and mutants; conditions: percent of substrate being converted; 0.125 mg/ml, 27° C., 16-20 hours; [CYP] per enzyme as in Table 8
Outline: as §1

[10] = Metabolism of ruxolitinib by P450 aluC09 and mutants; conditions: percent of substrate being converted; 0.125 mg/ml, 27° C., 16-20 hours; [CYP] per enzyme as in Table 8
Outline: as §1

[11] = Metabolism of tofacitinib by P450 aluC09 and mutants; conditions: percent of substrate being converted; 0.125 mg/ml, 27° C., 16-20 hours; [CYP] per enzyme as in Table 8
Outline: as §1

[12] = Metabolism of buparvaquone by P450 aluC09 and mutants; conditions: percent of substrate being converted; 0.125 mg/ml, 27° C., 16-20 hours; [CYP] per enzyme as in Table 8
Outline: as §1

[13] = Metabolism of epothilone B by P450 aluC09 and mutants; conditions: percent of substrate being converted; 0.125 mg/ml, 27° C., 16-20 hours; [CYP] per enzyme as in Table 8
Outline: as §1

[14] = Metabolism of 4-pyrrolidylacetophenone by P450 aluC09 and mutants; conditions: percent of substrate being converted; 0.125 mg/ml, 27° C., 16-20 hours; [CYP] per enzyme as in Table 8
Outline: as §1

[15] = Hydroxylation of aceclofenac catalysed by cytochrome P450 aluC09 and mutants
Outline: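 Conversion was assessed by UPLC-MS (UV and MS detection) after acetonitrile extraction of reactions run 16-20 h at 27° C, shaking. Reactions contained substrate at 0.125 mg/ml, P450 mutant plus ferredoxin and reductase partners, 1 mM NADP with glucose-6-phosphate regeneration, in phosphate buffer pH 7.4.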

[16] = Hydroxylation of diclofenac catalysed by cytochrome P450 aluC09 and mutants (UPLC-PDA-MS)
Outline: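 Conversion of diclofenac (0.125 mg/ml) to hydroxy metabolites measured by UPLC with UV and MS detection, identities confirmed by authentic samples. Reactions used P450 aluC09 variants with ferredoxin aluF03, reductase SCF15A and an NADP/G6P/G6PDH recycling system, pH 7.4 phosphate, 27° C, 16-20 hours.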

[17] = % by UV peak area at 275 nm, 0.125 mg/ml substrate, 27° C., 16-20 hours

B1: aluC09M40: cytochrome P450 aluC09 mutant T291R; amino acid sequence SEQ ID NO: 72 (protein, listed as Amycolatopsis lurida)
chain: MTDVEETTATLPLARKCPFSPPPEYERLRRESPVSRVGLPSGQTAWALTRLEDIREMLSSPHFSSDRQSPSFPLMVARQIRREDKPFRPSLIAMDPPEHSRARRDVVGEFTVKRMKALQPRIQQIVDEHLDALLAGPKPADLVQALSLPVPSLVICELLGVPYSDHEFFQSCSSRMLSREVTAEERMTAFEQLENYLDELVTKKEANATEDDLLGRQILKQRETGEADHGELVGLAFLLLIAGHETTANMISLGTVTLLENPDQLAKIKADPGKTLAAIEELLRVFTIAERATSRFATADVEIGGTLIRAGEGVVGLSNAGNHDPDGFENPDTFDIERGARHHVAFGFGVHQCLGQNLARLELQIVFDTLFRRVPGLRIAVPVDELPFKHDSTIYGLHALPVTW
Q: With B1 as the molecule, how does the “% conversions (avg) Tivantinib” value [1] read?
A: 5.3%

Q: And the “% conversions (avg) Celecoxib” value [2]?
A: 0%

Q: What about the “% conversions (avg) Ritonavir” value [3] of the same molecule?
A: 53.4%

Q: And the “Indomethacin (1.74 mins)” value [4]?
A: 88.8%

Q: And the “O-demethyl-Indomethacin (1.52 mins)” value [4]?
A: 11.2%

Q: And the “% conversions (avg) Bosentan” value [5]?
A: 76.5%

Q: And the “Desethyl Napropamide (1.62 min)” value [6, 17]?
A: 12.9%

Q: What about the “Desethyl-hydroxy-Napropamide (1.41 min)” value [6, 17] of the same molecule?
A: 0.4%

Q: And the “Hydroxy-Napropamide (1) (1.53 min)” value [6, 17]?
A: 2.3%

Q: And the “Hydroxy-Napropamide (2), (1.52 min)” value [6, 17]?
A: 1.8%

Q: And the “M-2Da (unidentified) (1.89 min)” value [6, 17]?
A: 2.4%

Q: What about the “Napropamide (substrate)” value [6, 17] of the same molecule?
A: 80.6%

Q: And the “Hydroxylated Ratio 2:1” value ([6]; napropamide, ratio of UV peak areas)?
A: 0.8

Q: And the “Flufenamic Acid (Substrate) 1.93 mins” value [7, 17]?
A: 94.8%

Q: What about the “Hydroxy-Flufenamic Acid (1) 1.69 mins” value [7, 17] of the same molecule?
A: 4.4%

Q: What about the “Hydroxy-Flufenamic Acid (2) 1.65 mins” value [7, 17] of the same molecule?
A: 0.9%

Q: What about the “Hydroxylated Ratio 1:2” value ([7]; flufenamic acid, ratio of UV peak areas at 275 nm) of the same molecule?
A: 4.9

Q: And the “% conversions (avg) Valsartan” value [8]?
A: 7.3%

Q: What about the “% conversions (avg) BIRB796” value [9] of the same molecule?
A: 0%

Q: And the “% conversions (avg) Ruxolitinib” value [10]?
A: 5.2%

Q: And the “% conversions (avg) Tofacitinib” value [11]?
A: 0.4%

Q: And the “% conversions (avg) Buparvaquone” value [12]?
A: 0%

Q: And the “% conversions (avg) Epothilone B” value [13]?
A: 2.4%

Q: And the “% conversions (avg) 4-pyrrolidylacetophenone” value [14]?
A: 1.7%

Q: And the “Aceclofenac (Substrate) (1.80 mins)” value [15, 17]?
A: 46.3%

Q: What about the “Dihydroxy-Aceclofenac (1.42 mins)” value [15, 17] of the same molecule?
A: 12.7%

Q: And the “Hydroxy-Aceclofenac (1) (1.64 min)” value [15, 17]?
A: 19.7%

Q: What about the “Hydroxy-Aceclofenac (2) (1.60 min)” value [15, 17] of the same molecule?
A: 21.4%

Q: And the “Hydroxylated Ratio 2:1” value ([15]; aceclofenac, ratio of UV peak areas at 275 nm)?
A: 1.1

Q: What about the “4′,5-dihydroxy-diclofenac 1.38 mins” value [16, 17] of the same molecule?
A: 2.2%

Q: What about the “4′-hydroxy-diclofenac (1) 1.62 mins” value [16, 17] of the same molecule?
A: 35.7%

Q: What about the “5-hydroxy-diclofenac (2) 1.58 mins” value [16, 17] of the same molecule?
A: 14.3%

Q: And the “Diclofenac (Substrate) 1.81 mins” value [16, 17]?
A: 48.8%

Q: What about the “Hydroxylated Ratio hydroxy 1:hydroxy 2” value ([16]; diclofenac, ratio of UV peak areas at 275nm) of the same molecule?
A: 2.5
